For the data set, the system named is Bacillus subtilis DB104 (SP-AmyQ fusion secretion). Kind of data set: AmyQ secretion efficiency, weighted average sort bin (1 = best secretion, 10 = worst) (bin number (weighted average, 1-10)); higher = lower secretion efficiency. The gist of the method: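 Occupied alginate beads were sorted by large-particle flow cytometry into 10 equally populated bins according to green/red fluorescence ratio. Each bead (~65 nL) held fluorescein-starch and about 0.3 cells of a B. subtilis DB104 library expressing mature AmyQ fused to designed signal peptides from the amyE locus, and beads were grown about 13 h at room temperature and stained with nile red before sorting. Bin amplicons were Illumina-sequenced, and the secretion score is the read-frequency-weighted average bin number, normalised to beads per bin, excluding low-abundance sequences.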

Values joined by “and” are separate entries in the source; they are usually repeats but may differ in a detail not shown here. Identical values can stand only once.

Sequence MFGTLFRVCFLAALIMAFTLPNSVYAQKP yielded an AmyQ secretion efficiency of 2.52. As for MTGSLLSSLAISALSLGLLVSAPTASFAAES, the figure is 5.96. The sequence MPYLKRVLLLLVTGLAVTATASAQTG yielded an AmyQ secretion efficiency of 1.97. MKLSVKIAGVLTVAAAAMTAKMYATYKGN: the AmyQ secretion efficiency turned out to be 7.14. On to MKTKTLFIFSAILTLSIFAPNETFAQTK, for which the AmyQ secretion efficiency was found to be 1.96. The result for MRKRKKRTIFAFLTGLMMFGTITAASASPD reads 5.69; that for MKNMSCKLVVSVTLFFSFLTIGPLAHAKRK, 2.49.

MKRLLSSLAISALSLGLLVSAPTASFAAES: the AmyQ secretion efficiency was determined as 2.75. The result for MPYLKRVLLLLVTGLFMSLFAVTATASFQTG reads 2.53. Sequence MGKWYYVVLVLSIAGIGGFSVHAASS gave an AmyQ secretion efficiency of 7.3. As for MLKRTSFVSSLFISSAVLLSILLIASTAHAQSA, the figure is 3.17. As for MKRLLVSLRVWMVFLMNWVTPDRKTAAAAVY, the figure is 6.49. As for MTKRGIQAFAGGIILATAVLAAVFYLTDEDQAAAV, the figure is 5.97 and 6.45; as for MKRSISIFITCLLITLLTMGGMIASPTSAAGT, 2.97; as for MKWMCSICCAAVLLAGGARQAEAV, 2.15. The sequence MKSCKQLIVCSLAAILLLIPSVSFAAPD returned an AmyQ secretion efficiency of 2.43. The result for MTKKYWQSPYYCRLLISGWLAPAASASAQTT reads 8.15; that for MKKKIVAGLAVSAVVRRRRAAAPAEAKTI, 7.4. As for MKLKKRVSMFLVALTMCGGLFVTVIIVAKAVKT, the figure is 6.35.

MKLRKVLTGSVLSLGLLIVSASPAFATSP: the AmyQ secretion efficiency is 2.48. MRHKIIGRYQTSSGQIIIGNMIGGGGGSEATSK showed an AmyQ secretion efficiency of 7.7.

In the case of MAIIIAIIAAVIVIAALITFNVRNNSPG, the AmyQ secretion efficiency was found to be 6.02. For the sequence MKKRKRRNFKRFIAAFLVLALMISGVPADVLAKST, the AmyQ secretion efficiency came to 2.12. Turning to MKLWMRKTLVVLFTIVTFGLVSPPAAIMADKP, the AmyQ secretion efficiency is 1.63. As for MRPVFPLILSAVLFLSCFFIAGATEASASKR, the figure is 3.68. MNKKYFVLIVCIIFTSALFPTFSSATAAQG had an AmyQ secretion efficiency of 1.33.

In turn, MKKFFGPIILAFILFAGAIAIPS gave an AmyQ secretion efficiency of 6.93. As to MKKLVLCVSILAVILSGVVLTQLS, the AmyQ secretion efficiency worked out at 5.78. In turn, MGLGKKLSVAVAASFMSLSISLPGVQNAEG had an AmyQ secretion efficiency of 2.95. The result for MKRLFMKASLVLFAVVFVFKPAKAETH reads 3.15. As for MRKKRVITCVMAASLTLGSLLPAGYSSAKED, the AmyQ secretion efficiency is 3.75.

The sequence MKLKKRVSMGLVALTMCGGLFVTPAKAVKT showed an AmyQ secretion efficiency of 2.55.

MKLSVKIAGVLTVAAAAMTAKMYATAKKK gave an AmyQ secretion efficiency of 5.42. The result for MKLSVKIAGVLTVAAAAMRKRKKRATAKGN reads 7.22; that for MKKTTNVLMAFIICLSLILSVLAAPPSGAKAESV, 2.36. Take MGLGKKNLNTMFLSVAVAASFMSLSISLPGVQAAEG: the AmyQ secretion efficiency stood at 2.66.

In turn, MKKWIYVKKKKKKAGIGGFSVHAASS had an AmyQ secretion efficiency of 6.75. As for MKRLFMKASLVLFAVVFVFAVKGAIAKAETH, the figure is 2.52. The result for MKLKKRVSMFKKALTMCGGLFVTPAKAVKT reads 7.21; that for MRGKSAVLLSLIMLIAGFLISFEFQM, 5.74; that for MKKVLMAFIICLSLILRRRKKPPSGAKAESV, 7.24.

Consider MNLRKIRRKKKKSLGMLVSAAPVLATSS, for which the AmyQ secretion efficiency is 7.69. Regarding MKKRRVLMAFIICLSLILSVLAAPPSGAKAESV, the AmyQ secretion efficiency is 1.87. For the sequence MKRSISIFITCLLITLLTMGGMIASPASAAGT, the AmyQ secretion efficiency was 3.79 and 2.48 and 2.42. As for MKRLLVSLRVWMVFLMNWVTPKRKTAAAAVY, the figure is 5.43. With MKIRKILLSSALSFGMLISAVPALAAGR, the AmyQ secretion efficiency was 2.62. In turn, MKKRLIAPMLLSAASLAFFAMSGSAQAEED had an AmyQ secretion efficiency of 2.35. As for MTMLRKIIGWILLLCIIPLFAFTVIASPKEV, the figure is 7.22; as for MTKKAWFLPLVCVLLISGWLAPAASASLQTT, 3.41. As for MKKLLAAGIIGLLTVSIASPMFAAEK, the AmyQ secretion efficiency came to 3.35. As for MKKVLMAFIICLSLILSGLAAPPSGAKAESV, the figure is 2.28; as for MKRLLVSLRVWMVFLMNWVTPDRKTAAPAVY, 6.03; as for MKSKGSIMACLILFSFTITTFINTETISLFSN, 7.29. MLMLWNSLALCGLALTLAPCAQAAEP yielded an AmyQ secretion efficiency of 2.76.

Take MPYLKRVLLLLVTGLFMSLFAVTATASKQTG: the AmyQ secretion efficiency was determined as 1.26. As for MKQKRKIIGWILLLCIIPLFAFTVIASGKEV, the figure is 6.81; as for MNKLKRLSMLTVMIASVFIFSSSHALAAQY, 1.68; as for MKLSVKIAGVLTVAAAAMTAKMYATRKGN, 7.91. As for MKKVGLLAGCLAAGGFSYNAFATEN, the figure is 6.86; as for MKVLLSALLLLLFAFEPSASMKKL, 6.8. The sequence MKRSIRTGTYCLLITLLTMGGMIASPASAAGT showed an AmyQ secretion efficiency of 3.22. MRKWYFILLAGVLTSVILAFVYDKTKANDD registered an AmyQ secretion efficiency of 6.75.

Turning to MLKKKWMVGLLAGCLAAGGFSYNAFSTEN, the AmyQ secretion efficiency is 6.06. The result for MKKWSTTIAMLILAGIALFVFISPLKSHKT reads 5.92; that for MKKWMITIAMLILAGIALFVFISPLKSHKT, 6.27 and 6.6 and 6.11. The result for MLKKIALTLCPAIVGSLLFFTAPASAHEE reads 2.4. As for MKWMCSICCAAVLLAGGAQAEAV, the figure is 3.54; as for MKRFILVLSFLSIIVKRRRRRTNASPM, 7.31. In turn, MKIRKILLSSALSFGMLISAVPALGAGT came in with an AmyQ secretion efficiency of 3.88. The result for MKNMSCKLVVSVTLFFSFLKRRPLAHAQNS reads 8.2; that for MKLAKRVSALTPSTTLAITAKYKEL, 5.07; that for MKRLLILLLIIIMLLGGTTFAPSAFAKQD, 2. MTKKRRRAWFLPLVCVLLISGWLAPAASASAQTT: the AmyQ secretion efficiency is 2.33. The result for MKKIWIGMLAAAVLLLSVFAMVPKVSLADAA reads 4.61; that for MLKKIALTLCPAIVGSLLFFTAPFSAHVS, 5.46; that for MKSKGSIMACLILFSFTITTFINTETISMFSN, 7.38. The result for MKKRLKRKRVLVPALIMSGITLIEANKK reads 6.77; that for MMKVLMAFIICLSLILSVLAAPPSGAKAESV, 5; that for MKKTIMSFVAVAALSTTAFGAHASAAKR, 2.03.

With MKKELLASLVLCLSLDDDDETNEVFAATT, the AmyQ secretion efficiency was determined as 5.98. Turning to MKNMSCKLVVSVTLFFSFLTIGPLAHADDE, the AmyQ secretion efficiency came out at 3.5. On to “MTMLRKIIGWILLLCIIVSVAATITLIPLFAFTVIASGKEV”, for which the AmyQ secretion efficiency was determined as 4.26. The sequence MIVLSTIITFNFIILLFISIIVFLSVIQPQPS returned an AmyQ secretion efficiency of 5.66.

Sequence MNLRKTYSGRGYSLGMLVSAAPVLATSS yielded an AmyQ secretion efficiency of 6.74. As for MFNRLFRVCFLAALIMAFTLPNSVYQQKP, the AmyQ secretion efficiency is 5.8. MRSYIKVLTMCFLGLILFVPTLLADNS gave an AmyQ secretion efficiency of 4.36.

MKKKIIRFLLVSFVLFFALSTGITGVQAAPA yielded an AmyQ secretion efficiency of 2.57.

Sequence MRHKIITFILAVVVIIIIGNMIGGGGGQEATSK returned an AmyQ secretion efficiency of 6.41.

Take MHLIRAAGAVCLAVVLIAGCRFNEDQHQAEEENT: the AmyQ secretion efficiency is 4.77. For the sequence MLTKRLLTIYIMLLGLIAWFPGAIQAEEK, the AmyQ secretion efficiency is 2.08.

In turn, MKKFIVFICFFVLFSVHPIAAAAADS displayed an AmyQ secretion efficiency of 4.38. As for MNLRKILLSSALSLGMLVSAAPQLATSS, the figure is 4.11. MKKRLIAPMLLSAASLAFFAMSGSAQMAAY: the AmyQ secretion efficiency was 6.46. The result for MLKKIALTLCPAIVGSLLFFTAPASRHVS reads 6.05; that for MGLGKKLSVAVAASFMSLSISLPGKQAAEG, 4.55. MKKVLMAFIICLSLILEDDDEEDSGAKAESV: the AmyQ secretion efficiency amounted to 4.1.

MKKKIVAGLAVSAVVIVAMAAAIAEAKTI had an AmyQ secretion efficiency of 6.55.

MMTLCVMMLLFSAIASFPVSAQAKDQ yielded an AmyQ secretion efficiency of 7.11.

MKIRKILLSSALSFGMLKKRRKKALAAGT registered an AmyQ secretion efficiency of 6.86. As for MKNMSCKLVVSVTLFFSFLTIGPLLHAQNS, the figure is 1.77; as for MKQIMIFLTSFMLLAMTGQTALAADE, 3.7. MKRITINIRRKKIAAAVISLTGTAEAAEK showed an AmyQ secretion efficiency of 6.82.

MSKGIIRFLLVSFVLFFALSTGITGVQAAPA displayed an AmyQ secretion efficiency of 2.19.

For the sequence MLKKIALTLCPAIVGSLLFFTAPASTHVS, the AmyQ secretion efficiency was 5.85. Sequence MKKSQYFIVFICFFVLFSVHPIAVAAADS yielded an AmyQ secretion efficiency of 3.83.

As for MKKWIYVVLVLSIAGIGGFSVHKASS, the AmyQ secretion efficiency amounted to 4.97. With MKNMSCKLVVSVTLFFSFLTIGPLMHAQNS, the AmyQ secretion efficiency was 1.39.

In turn, MLTKRLLTIYIMLLGLIAWFPGAAQAATP came in with an AmyQ secretion efficiency of 2.42. As for MKVPKTMLLSTAAGLLLSLTATSPPFPPVSAHYV, the figure is 4.04.

For the origin of these results see the supplement of paper PMC9942255.
